Measurements published in PMC9169624.

Legend:
[1] = molecular target: HELB (DNA helicase B);Human RPA (hRPA) (Homo sapiens;Homo sapiens, UniProt Q8NG08;P27694;P15927;P35244 1-1087;1-616;1-270;1-121, |); assay: EMSA; HELB supershifts the human RPA-DNA complex; EMSA: 2.5 nM DNA (5 nM in Fig. S1F); PIFE: 2 nM DNA for Kd; buffer, salt, pH and temperature not in the supplied material; optical tweezers at room temperature; conditions: protein: recombinant;recombinant; copies: 1;1;1;1; label: 5'-Cy5; single strand
Sequence of HELB (DNA helicase B);Human RPA (hRPA) (Q8NG08 whole entry, chain 1 of 4): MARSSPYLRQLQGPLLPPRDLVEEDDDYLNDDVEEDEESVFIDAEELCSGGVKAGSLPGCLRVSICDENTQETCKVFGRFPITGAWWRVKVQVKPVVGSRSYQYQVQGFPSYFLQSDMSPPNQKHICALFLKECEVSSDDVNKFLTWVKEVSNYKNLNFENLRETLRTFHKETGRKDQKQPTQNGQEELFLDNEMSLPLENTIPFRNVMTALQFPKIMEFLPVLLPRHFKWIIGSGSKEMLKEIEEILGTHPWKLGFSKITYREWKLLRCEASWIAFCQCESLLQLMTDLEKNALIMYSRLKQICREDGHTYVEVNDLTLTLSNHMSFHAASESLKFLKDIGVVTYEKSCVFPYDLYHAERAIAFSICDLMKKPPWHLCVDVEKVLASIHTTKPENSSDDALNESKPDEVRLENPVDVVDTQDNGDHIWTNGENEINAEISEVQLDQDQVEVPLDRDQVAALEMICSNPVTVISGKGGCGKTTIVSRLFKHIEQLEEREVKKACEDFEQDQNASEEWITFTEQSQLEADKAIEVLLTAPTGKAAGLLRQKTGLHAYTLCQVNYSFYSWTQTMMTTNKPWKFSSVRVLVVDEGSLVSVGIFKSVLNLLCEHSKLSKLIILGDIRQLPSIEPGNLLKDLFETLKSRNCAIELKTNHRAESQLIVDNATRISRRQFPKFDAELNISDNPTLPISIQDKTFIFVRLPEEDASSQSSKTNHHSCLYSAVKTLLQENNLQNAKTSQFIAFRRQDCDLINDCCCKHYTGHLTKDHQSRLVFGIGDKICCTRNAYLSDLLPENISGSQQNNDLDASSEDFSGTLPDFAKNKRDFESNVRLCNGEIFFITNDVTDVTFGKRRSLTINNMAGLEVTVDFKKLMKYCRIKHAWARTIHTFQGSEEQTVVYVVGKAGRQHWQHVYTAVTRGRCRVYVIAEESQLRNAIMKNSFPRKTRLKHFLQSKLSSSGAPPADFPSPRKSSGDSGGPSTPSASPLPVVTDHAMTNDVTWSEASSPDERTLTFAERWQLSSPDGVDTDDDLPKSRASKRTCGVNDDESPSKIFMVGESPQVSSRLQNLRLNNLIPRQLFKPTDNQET
Sequence of HELB (DNA helicase B);Human RPA (hRPA) (P27694 whole entry, chain 2 of 4): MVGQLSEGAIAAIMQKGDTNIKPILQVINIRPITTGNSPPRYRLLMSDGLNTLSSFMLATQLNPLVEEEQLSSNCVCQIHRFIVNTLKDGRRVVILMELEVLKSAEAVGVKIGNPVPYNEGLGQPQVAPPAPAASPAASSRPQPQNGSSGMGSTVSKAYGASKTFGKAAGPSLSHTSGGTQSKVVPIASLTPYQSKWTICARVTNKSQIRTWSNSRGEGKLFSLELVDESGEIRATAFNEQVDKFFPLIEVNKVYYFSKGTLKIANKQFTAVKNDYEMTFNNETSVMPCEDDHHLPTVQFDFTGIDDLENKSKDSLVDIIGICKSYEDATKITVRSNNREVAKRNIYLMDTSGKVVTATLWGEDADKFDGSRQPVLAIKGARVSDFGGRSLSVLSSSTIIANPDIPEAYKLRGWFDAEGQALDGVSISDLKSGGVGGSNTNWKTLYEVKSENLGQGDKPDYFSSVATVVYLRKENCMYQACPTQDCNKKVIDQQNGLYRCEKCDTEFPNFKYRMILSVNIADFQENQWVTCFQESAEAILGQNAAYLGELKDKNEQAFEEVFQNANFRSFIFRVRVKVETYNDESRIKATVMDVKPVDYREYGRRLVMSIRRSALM
Sequence of HELB (DNA helicase B);Human RPA (hRPA) (P15927 whole entry, chain 3 of 4): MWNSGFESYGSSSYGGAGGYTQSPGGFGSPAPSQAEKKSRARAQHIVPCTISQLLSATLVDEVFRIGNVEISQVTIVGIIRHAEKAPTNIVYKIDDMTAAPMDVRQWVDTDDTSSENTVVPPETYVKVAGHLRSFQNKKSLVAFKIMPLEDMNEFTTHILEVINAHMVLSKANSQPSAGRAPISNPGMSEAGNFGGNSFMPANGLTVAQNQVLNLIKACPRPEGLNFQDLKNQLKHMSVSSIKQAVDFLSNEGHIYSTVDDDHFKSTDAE
Sequence of HELB (DNA helicase B);Human RPA (hRPA) (P35244 whole entry, chain 4 of 4): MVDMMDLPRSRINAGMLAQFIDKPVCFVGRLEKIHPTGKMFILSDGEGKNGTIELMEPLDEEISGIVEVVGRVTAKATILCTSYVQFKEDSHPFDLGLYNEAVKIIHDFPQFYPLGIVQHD

Human RPA (hRPA) = Human RPA (hRPA) (Homo sapiens, UniProt P27694;P15927;P35244 1-616;1-270;1-121); assay: EMSA; human RPA alone; EMSA: 2.5 nM DNA (5 nM in Fig. S1F); PIFE: 2 nM DNA for Kd; buffer, salt, pH and temperature not in the supplied material; optical tweezers at room temperature; conditions: protein: recombinant; copies: 1;1;1; label: 5'-Cy5; single strand
Sequence of Human RPA (hRPA) (P27694 whole entry, chain 1 of 3): as the sequence (P27694 whole entry, chain 2 of 4) above
Sequence of Human RPA (hRPA) (P15927 whole entry, chain 2 of 3): as the sequence (P15927 whole entry, chain 3 of 4) above
Sequence of Human RPA (hRPA) (P35244 whole entry, chain 3 of 3): as the sequence (P35244 whole entry, chain 4 of 4) above

HELB (DNA helicase B) = HELB (DNA helicase B) (Homo sapiens, UniProt Q8NG08 1-1087); assay: PIFE fluorescence; EMSA: 2.5 nM DNA (5 nM in Fig. S1F); PIFE: 2 nM DNA for Kd; buffer, salt, pH and temperature not in the supplied material; optical tweezers at room temperature; conditions: protein: recombinant; label: 3'-Cy3; single strand
Sequence of HELB (DNA helicase B) (Q8NG08 whole entry): as the sequence (Q8NG08 whole entry, chain 1 of 4) above

Binder | binding result [1] | binding result (Human RPA (hRPA)) | Kd (HELB (DNA helicase B))
GCTTGCTAGGACGGATCGCTCGAGG (ssDNA) [EMSA 25mer] | binds | binds | –
TTTTTTTTTTTTTTTTTTTTTTTTTTTTTT (ssDNA) [poly(dT) 30mer] | – | – | ~5 nM
